Experimental data published in PMC7004355 (PLoS ONE, 2020).

Assays:
purified protein [1] = substrate: NC(=O)OP(=O)(O)O; experiment: purified protein; assay type: biochemical, Escherichia coli; conditions: 50 mM Tris pH 8.5, 20 °C, 20 mM NaCl
purified protein [2] = substrate: NCCC[C@H](N)C(=O)O; experiment: purified protein; conditions: 50 mM Tris pH 8.5, 20 °C, 20 mM NaCl, carbamoyl phosphate 5 mM
[3] = target: the molecule itself; experiment: SEC-SAXS; in-line SEC-SAXS on a Superdex 200 5/150 GL column; enzyme at 4.3-5.5 mg/mL; apo state, and after incubation with 5 mM CP or 10 mM ORN; self-association of the enzyme (trimer)
[4] = ornithine 60 mM (variants with ORN KM above 3 mM)

B1: OTC (E. coli ornithine transcarbamoylase, argI) (Escherichia coli K-12; E300Q) (protein)
chain: SGFYHKHFLKLLDFTPAELNSLLQLAAKLKADKKSGKEEAKLTGKNIALIFEKDSTRTRCSFEVAAYDQGARVTYLGPSGSQIGHKESIKDTARVLGRMYDGIQYRGYGQEIVETLAEYASVPVWNGLTNEFHPTQLLADLLTMQEHLPGKAFNEMTLVYAGDARNNMGNSMLEAAALTGLDLRLVAPQACWPEAALVTECRALAQQNGGNITLTEDVAKGVEGADFIYTDVWVSMGEAKEKWAERIALLREYQVNSKMMQLTGNPEVKFLHCLPAFHDDQTTLGKKMAEEFGLHGGMQVTDEVFESAASIVFDQAENRMHTIKAVMVATLSK
notes: full length, uncleaved 6xHis tag, pCA24N ASKA clone, expressed in BL21(DE3) Tuner; homotrimer of 333-residue subunits
Km (purified protein [1]; ornithine 3 mM): 340 ± 110 µM
kcat (purified protein [1]; ornithine 3 mM): 4.6 ± 1 s⁻¹
kcat/Km (purified protein [1]; ornithine 3 mM): 14000 ± 3300 M⁻¹ s⁻¹
Km (purified protein [2]): 330 ± 100 µM
kcat (purified protein [2]): 5.1 s⁻¹
kcat/Km (purified protein [2]): 16000 M⁻¹ s⁻¹

B2: Escherichia coli ornithine transcarbamoylase (OTC) variant Y229S, His-tagged (enzyme, E. coli)
chain: SGFYHKHFLKLLDFTPAELNSLLQLAAKLKADKKSGKEEAKLTGKNIALIFEKDSTRTRCSFEVAAYDQGARVTYLGPSGSQIGHKESIKDTARVLGRMYDGIQYRGYGQEIVETLAEYASVPVWNGLTNEFHPTQLLADLLTMQEHLPGKAFNEMTLVYAGDARNNMGNSMLEAAALTGLDLRLVAPQACWPEAALVTECRALAQQNGGNITLTEDVAKGVEGADFISTDVWVSMGEAKEKWAERIALLREYQVNSKMMQLTGNPEVKFLHCLPAFHDDQTTLGKKMAEEFGLHGGMEVTDEVFESAASIVFDQAENRMHTIKAVMVATLSK
notes: Anabolic ornithine transcarbamoylase of E. coli, argI gene, 333-residue subunit; Made by site-directed mutagenesis of the ASKA pCA24N plasmid; 6x-His tag not cleaved; source: E. coli BL21 (DE3) Tuner, purified (HisTrap FF, Superdex 200 SEC)
binding result [3]: binds

B3: OTC (E. coli ornithine transcarbamoylase, argI) (Escherichia coli K-12; D141N) (protein)
chain: SGFYHKHFLKLLDFTPAELNSLLQLAAKLKADKKSGKEEAKLTGKNIALIFEKDSTRTRCSFEVAAYDQGARVTYLGPSGSQIGHKESIKDTARVLGRMYDGIQYRGYGQEIVETLAEYASVPVWNGLTNEFHPTQLLANLLTMQEHLPGKAFNEMTLVYAGDARNNMGNSMLEAAALTGLDLRLVAPQACWPEAALVTECRALAQQNGGNITLTEDVAKGVEGADFIYTDVWVSMGEAKEKWAERIALLREYQVNSKMMQLTGNPEVKFLHCLPAFHDDQTTLGKKMAEEFGLHGGMEVTDEVFESAASIVFDQAENRMHTIKAVMVATLSK
notes: as for B1
Km (purified protein [1]; [4]): 1400 ± 450 µM
kcat (purified protein [1]; [4]): 360 ± 59 s⁻¹
kcat/Km (purified protein [1]; [4]): 290000 ± 90000 M⁻¹ s⁻¹
Km (purified protein [2]): 17000 ± 5900 µM
kcat (purified protein [2]): 460 s⁻¹
kcat/Km (purified protein [2]): 30000 M⁻¹ s⁻¹

B4: Escherichia coli ornithine transcarbamoylase (OTC) variant Y160F, His-tagged (enzyme, E. coli)
chain: SGFYHKHFLKLLDFTPAELNSLLQLAAKLKADKKSGKEEAKLTGKNIALIFEKDSTRTRCSFEVAAYDQGARVTYLGPSGSQIGHKESIKDTARVLGRMYDGIQYRGYGQEIVETLAEYASVPVWNGLTNEFHPTQLLADLLTMQEHLPGKAFNEMTLVFAGDARNNMGNSMLEAAALTGLDLRLVAPQACWPEAALVTECRALAQQNGGNITLTEDVAKGVEGADFIYTDVWVSMGEAKEKWAERIALLREYQVNSKMMQLTGNPEVKFLHCLPAFHDDQTTLGKKMAEEFGLHGGMEVTDEVFESAASIVFDQAENRMHTIKAVMVATLSK
notes: as for B2
binding result [3]: binds

B5: Escherichia coli ornithine transcarbamoylase (OTC), wild type, His-tagged (enzyme, E. coli)
chain: SGFYHKHFLKLLDFTPAELNSLLQLAAKLKADKKSGKEEAKLTGKNIALIFEKDSTRTRCSFEVAAYDQGARVTYLGPSGSQIGHKESIKDTARVLGRMYDGIQYRGYGQEIVETLAEYASVPVWNGLTNEFHPTQLLADLLTMQEHLPGKAFNEMTLVYAGDARNNMGNSMLEAAALTGLDLRLVAPQACWPEAALVTECRALAQQNGGNITLTEDVAKGVEGADFIYTDVWVSMGEAKEKWAERIALLREYQVNSKMMQLTGNPEVKFLHCLPAFHDDQTTLGKKMAEEFGLHGGMEVTDEVFESAASIVFDQAENRMHTIKAVMVATLSK
notes: Anabolic ornithine transcarbamoylase of E. coli, argI gene, 333-residue subunit; Expressed from the ASKA plasmid pCA24N; also called WT OTC; anabolic OTC; source: E. coli BL21 (DE3) Tuner, purified (HisTrap FF, Superdex 200 SEC)
stoichiometry N [3]: 3
Km (purified protein [1]; ornithine 3 mM): 270 ± 34 µM
kcat (purified protein [1]; ornithine 3 mM): 410 ± 20 s⁻¹
kcat/Km (purified protein [1]; ornithine 3 mM): 1.5e+06 ± 130000 M⁻¹ s⁻¹
Km (purified protein [2]): 530 ± 55 µM
kcat (purified protein [2]): 440 s⁻¹
kcat/Km (purified protein [2]): 830000 M⁻¹ s⁻¹

B6: Escherichia coli ornithine transcarbamoylase (OTC) variant Q104L, His-tagged (enzyme, E. coli)
chain: SGFYHKHFLKLLDFTPAELNSLLQLAAKLKADKKSGKEEAKLTGKNIALIFEKDSTRTRCSFEVAAYDQGARVTYLGPSGSQIGHKESIKDTARVLGRMYDGILYRGYGQEIVETLAEYASVPVWNGLTNEFHPTQLLADLLTMQEHLPGKAFNEMTLVYAGDARNNMGNSMLEAAALTGLDLRLVAPQACWPEAALVTECRALAQQNGGNITLTEDVAKGVEGADFIYTDVWVSMGEAKEKWAERIALLREYQVNSKMMQLTGNPEVKFLHCLPAFHDDQTTLGKKMAEEFGLHGGMEVTDEVFESAASIVFDQAENRMHTIKAVMVATLSK
notes: Anabolic ornithine transcarbamoylase of E. coli, argI gene, 333-residue subunit; Made by site-directed mutagenesis of the ASKA pCA24N plasmid; 6x-His tag not cleaved; also called negative control; source: E. coli BL21 (DE3) Tuner, purified (HisTrap FF, Superdex 200 SEC)
binding result [3]: binds

B7: Escherichia coli ornithine transcarbamoylase (OTC) variant D231A, His-tagged (enzyme, E. coli)
chain: SGFYHKHFLKLLDFTPAELNSLLQLAAKLKADKKSGKEEAKLTGKNIALIFEKDSTRTRCSFEVAAYDQGARVTYLGPSGSQIGHKESIKDTARVLGRMYDGIQYRGYGQEIVETLAEYASVPVWNGLTNEFHPTQLLADLLTMQEHLPGKAFNEMTLVYAGDARNNMGNSMLEAAALTGLDLRLVAPQACWPEAALVTECRALAQQNGGNITLTEDVAKGVEGADFIYTAVWVSMGEAKEKWAERIALLREYQVNSKMMQLTGNPEVKFLHCLPAFHDDQTTLGKKMAEEFGLHGGMEVTDEVFESAASIVFDQAENRMHTIKAVMVATLSK
notes: as for B2
binding result [3]: binds
Km (purified protein [1]; ornithine 3 mM): 150 ± 42 µM
kcat (purified protein [1]; ornithine 3 mM): 0.48 ± 0.1 s⁻¹
kcat/Km (purified protein [1]; ornithine 3 mM): 3400 ± 1300 M⁻¹ s⁻¹
Km (purified protein [2]): 590 ± 330 µM
kcat (purified protein [2]): 0.7 s⁻¹
kcat/Km (purified protein [2]): 1400 M⁻¹ s⁻¹
